Test results: the supplement of paper PMC9170038

Key:
MS2 coat protein [1] = test: apparent KD of MS2 coat protein, switch OFF state (with FMN for OFF switches, without FMN for ON switches); designed switch direction (-1 OFF switch, 1 ON switch): -1; higher = weaker reporter binding; settings: FMN input: 0 or 200 uM; Eterna round: R93 (includes R88 designs)
In short: (§1)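 Apparent KD stands for the median, per design, of fits to normalised cluster binding curves. The curves came from titrating on-chip-transcribed RNA switches on Illumina sequencing clusters with SNAP-549-labelled MS2 coat protein, twofold from 0.7 or 1.5 nM to 3 µM. Buffer was 100 mM Tris-HCl pH 7.5, 80 mM KCl, 4 mM MgCl2, without or with constant ligand.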

MS2 coat protein [2] = test: apparent KD of MS2 coat protein, switch ON state; designed switch direction (-1 OFF switch, 1 ON switch): -1; higher = weaker reporter binding; settings: FMN input: 0 or 200 uM; Eterna round: R93 (includes R88 designs)
In short: as §1

MS2 coat protein [3] = test: apparent KD of MS2 coat protein; designed switch direction (-1 OFF switch, 1 ON switch): 1; higher = weaker reporter binding
In short: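 Normalised cluster fluorescence was curve-fitted, and each design's median over clusters is its apparent KD. Before this, SNAP-549-labelled MS2 coat protein was titrated from 0.7 or 1.5 nM, doubling to 3 µM, over RNA switches transcribed on Illumina chips by stalled E. coli RNA polymerase. Titrations had no input, 200 uM small-molecule ligand, or an oligonucleotide input, and steps lasted 0.8–1.5 h (lowest) to 10–20 min (highest).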

[4] = input ligand: microRNA oligo, concentration not stated
[5] = Eterna round: R95, input ligand: FMN 200 uM
[6] = Eterna round: R95, input ligand: microRNA oligo, concentration not stated
[7] = Eterna round: R95, input ligand: none

Sequence | apparent KD of MS2 coat protein (MS2 coat protein [1]) | apparent KD of MS2 coat protein (MS2 coat protein [2]) | also measured
AUCAUGUUAGGAUAUUAAAGAAAAGAAAAGAAAGAAAAGAAUAAGAAGGAACAUGAGGAUCACCCAUGUAAGAA [EteRNA is fun!] | 29.7 nM | 30.4 nM | 
AACAGUACAGGAUAUACAUGAGGAUCACCCAUGUGAAAAUUAAGUGGGAAACCACAGUGUAGAAGGGUACUGAA [Mat - Exclusion 3 - Eli mod - D55] | 93 nM | 120 nM | 
GGUUGGCGAGGAUAUACAUGAGGAUCACCCAUGUGAGAGAAAAAAGUGAUAAAGAAAAGUAGAAGGCGCUGACG [salish99-ex3-32] | 2470 nM | 120 nM | 
AACAAACAUGAGGAUCACCCAUGUGAGGAUAUACAAACAAACAAAAACAAAACAAAAAGUAGAAGGCACAACAA [JR_Exc001_Sub002] | 18.9 nM | 19.4 nM | 
AAAAAGUGAGGAUAUACAUGAGGAUCACCCAUGUGAAGGGAAGAAAGAAAGAAAGAAAGUAGAAGGCACAAAAA [Default title] | 222 nM | 51.1 nM | 
GGAAAACAUGAGGAUCACCCAUGUCAGGAUAUGUGAAAAAAAAAAAAAAGAAAAGAAAACAGAAGGGACAAAAG [amethyst 6] | 23.2 nM | 80.8 nM | 
AAAAAGGGAGGAUAUACGAAAUAGGGAAACCUAAAAAAGGGACAUGAGGAUCACCCAUGUAGAAGGCCCAAGAA [Clint Eastwood 64% 6] | 223 nM | 39 nM | 
AACAGUACAGGAUAUACAUGAGGAUCACCCAUGUGAAGAUUAAGUGGAGUACCACAAAGUAGAAGGGUACUGGA [Ruby 89] | 101 nM | 28.1 nM | 
AAAAAACAUGAGGAUCACCCAUGUGAGGAUAUCCAGAAGGGAAUAAAAUAACUCGAAAGGAGAAGGCGCAAAAA [Ex 1 May 34] | 26.2 nM | 31.8 nM | 
GGAAAACAUGAGGAUCACCCAUGUAAGGAUAUGCUAGGGAGGGAAAAAAUUUCGCCAGGCAGAAGGUACUAAAG [Janelle Amethyst 18 Mod 6 - Jieux - Exclusion 1] | 44.7 nM | 23.5 nM | 
AACAUGUCAGGAUAUUAAAGAAAAGAAAAGAAAGAAAAGAAUAAGAAGGGACAUGAGGAUCACCCAUGUAAGAA [EteRNA is fun!] | 37 nM | 72.1 nM | 
AAUAAGUGAGGAUAUACUAAAGAAAUGAAAAGGGAUAAAGAACAUGAGGAUCACCCAUGUAGAAGGCACAAUAA ['Aper-'Anat] | 37.2 nM | 31.9 nM | 
CGCAAGUCAGGAUAUUCGACAAGUAAAUCAGUAGAUCAGAAGAAGAAGGGACAUGAGGAUCACCCAUGUAAGUA [JR_Exc004_Sub404] | 26.3 nM | 29.1 nM | 
UAAAGACAUGAGGAUCACCCAUGUGAGGAUAUCGGUGACUAUAAAAAAAAAUAGUCACCGAGAAGGCACAGAAA [JR_Exc001_Sub301] | 117 nM | 43.2 nM | 
AAGAAGGCAGGAUAUACAAAAUAAAAGAAAAGAAAGAAAGAACAUGAGGAUCACCCAUGUAGAAGGGCUAAGAA [Merhotepre Ini] | 39.3 nM | 50.9 nM | 
ACAUCUAGAGGAUAUACAUGGAAAAAAAAAAAAAAAAAACUACAUGAGGAUCACCCAUGUAGAAGGCUAGAUGA [Ex2 Design 192: Random 12] | 35.7 nM | 40.4 nM | 
AACAGUACAGGAUAUACAUGAGGAUCACCCAUGUGAGUUUUAAAAGGCGUACCUAAAAGUAGAAGGGUACUGGA [JL Maslow Revisted mod 20] | 44.2 nM | 24.3 nM | 

Sequence | apparent KD of MS2 coat protein (MS2 coat protein [1]) | apparent KD of MS2 coat protein (MS2 coat protein [2]) | also measured
AAUAAGUGAGGAUAUGGAAAUAGUAGAUAAGAUUCCCUAAACCAGAAGGCACAUGAGGAUCACCCAUGUAAAUA [JR_Exc004_Sub005] | 26.4 nM | 38.7 nM | 
UCGAUGCGAGGAUAUACUAAGGCAACUACUGCAGCUCAAAAACAUGAGGAUCACCCAUGUAGAAGGCGCAUAUA [JR_Exc002_Sub304] | 18.1 nM | 19.6 nM | 
AGCUAGUCAGGAUAUACGAACAUGUCAAAAGACGAGAAGGGACAUGAGGAUCACCCAUGUAGAAGGGACUAGCA [Diamond 21] | 198 nM | 87.5 nM | 
GCUGUGGAAGGAUAUACAUGAGGAUCACCCAUGUGAGAGAAAAAAGUGAGAAAGAAAAGUAGAAGGUCCGUAGG [salish99-ex3-98] | 66 nM | 40.3 nM | 
AAGAACGUAGGAUAUACAUGAGGAUCACCCAUGUAAAAGAAAGAAAGGGAAAAGAAAAGUAGAAGGACGAAGAA [Hedjkheperre-setepenre Shoshenq I] | 77.9 nM | 29.7 nM | 
AGUUGGCGAGGAUAUACAUGAGGAUCACCCAUGUAAGAGUAAAGAGUGAGAAAGAGAAGUAGAAGGCGCUGACA [Ruby 57] | 247 nM | 53 nM | 
AAAAAGUCAGGAUAUGCGAAGGCGUCUGAUAGACGAGGCUAGCAGAAGGGACAUGAGGAUCACCCAUGUAAAAA [Mat - Mod of Nando] | 45 nM | 50.5 nM | 
AAAAAGUCAGGAUAUGUCAAAAGUCACAAAAGUGACAAAAGACAGAAGGGACAUGAGGAUCACCCAUGUGGAAA [Mod of Eli - Late G segment 1] | 134 nM | 89.3 nM | 
AAAAAACAUGAGGAUCACCCAUGUGAGGAUAUCCUGAAGGGAAUAAAAUAACUCGAAAGGAGAAGGCGCAAAAA [Ex 1 May 32] | 33 nM | 35.2 nM | 
GCUACCAAAGAAGCCUACAUGAGGAUCACCCAUGUAUGUAGGCAGGAUAUCGAUUGCAAAGCGAUCGAGAAGGGCUUAGGUAGC [Mat - Same State NG 3 - JL Mod - D92] (Eterna round: R96, puzzle: Same State NG 3) |  |  | apparent KD of MS2 coat protein (MS2 coat protein [3]; input ligand: FMN 200 uM): 68.9 nM; apparent KD of MS2 coat protein (MS2 coat protein [3]; [4]): 116 nM; apparent KD of MS2 coat protein (MS2 coat protein [3]; input ligand: none): 152 nM
AGAUCAUGACGAGGAUAUGCCACAUGAGGAUCACCCAUGUAUGUGGUAGGACGGAAACGUCCAAAGCAGAAGGCGUCGUGGUCA [Mat - Same State NG 2 - JL mod - D35] (Eterna round: R96, puzzle: Same State NG 2) |  |  | apparent KD of MS2 coat protein (MS2 coat protein [3]; input ligand: FMN 200 uM): 23.1 nM; apparent KD of MS2 coat protein (MS2 coat protein [3]; [4]): 44.8 nM; apparent KD of MS2 coat protein (MS2 coat protein [3]; input ligand: none): 41.7 nM
UCUUGGUUUUUGCUCGUUUUUUGUGUUGAACAUGAGGAUCACCCAUGUAUUGUACGGUCCGGUUUGAUGAUGGUCCA [JMF 46] (puzzle: Sensor for hsa-mir-208a) |  |  | apparent KD of MS2 coat protein (MS2 coat protein [3]; [5]): 35.6 nM; apparent KD of MS2 coat protein (MS2 coat protein [3]; [6]): 23.9 nM; apparent KD of MS2 coat protein (MS2 coat protein [3]; [7]): 38.3 nM
AUUUUUGAUGCAGGAUAUGAUUAACAUGAGGAUCACCCAUGUGGUGUUGUGAGUAAGGAGAGUGAUCAGAAGGGCAUUUUUUUU [JMF's solution 93] (Eterna round: R96, puzzle: Same State NG 2) |  |  | apparent KD of MS2 coat protein (MS2 coat protein [3]; input ligand: FMN 200 uM): 810 nM; apparent KD of MS2 coat protein (MS2 coat protein [3]; [4]): 269 nM; apparent KD of MS2 coat protein (MS2 coat protein [3]; input ligand: none): 365 nM
GGAGCCGGCACCGAGGAUAUUUAUAUUAAAACAUGAGGAUCACCCAUGUAGGCCAGAAGGCCUUGGGAGAAGGCGGAUCGGCUCG [Xeonanis - 5] (puzzle: Same State 2) |  |  | apparent KD of MS2 coat protein (MS2 coat protein [3]; [5]): 16.4 nM; apparent KD of MS2 coat protein (MS2 coat protein [3]; [6]): 75.7 nM; apparent KD of MS2 coat protein (MS2 coat protein [3]; [7]): 79.6 nM
GGCUGCGUUGUGAAGGAUAUCCGCGUCUGGACAUGAGGAUCACCCAUGUAUGCUUGGAUCGUGCCGGAGAAGGUCACGAAUGAUU [JR_SS002_Sub1213] (Eterna round: R96, puzzle: Same State 2) |  |  | apparent KD of MS2 coat protein (MS2 coat protein [3]; input ligand: FMN 200 uM): 14 nM; apparent KD of MS2 coat protein (MS2 coat protein [3]; [4]): 29.4 nM; apparent KD of MS2 coat protein (MS2 coat protein [3]; input ligand: none): 55.2 nM
GAAAAGACAUGAGGAUCACCCAUGUGGUAGACAGCUAGACGCAAGGAUAUGCAUGUGAUUCUCAUGCAGAAGGUGCUUCUAGGU [Eternabot solution 12] (Eterna round: R96, puzzle: Same State NG 3) |  |  | apparent KD of MS2 coat protein (MS2 coat protein [3]; input ligand: FMN 200 uM): 37.6 nM; apparent KD of MS2 coat protein (MS2 coat protein [3]; [4]): 53.3 nM; apparent KD of MS2 coat protein (MS2 coat protein [3]; input ligand: none): 68.6 nM
UGGUACAUGGGAGGAUAUCUCGUGGAGACAUGAGGAUCACCCAUGUAGAUGGCCGGUAACCGGAGAGAGAAGGCCCAUGUACCU [JL SSNG1 3.68] (Eterna round: R96, puzzle: Same State NG 2) |  |  | apparent KD of MS2 coat protein (MS2 coat protein [3]; input ligand: FMN 200 uM): 66.9 nM; apparent KD of MS2 coat protein (MS2 coat protein [3]; [4]): 65.4 nM; apparent KD of MS2 coat protein (MS2 coat protein [3]; input ligand: none): 159 nM
